The values that follow come from patent publication US20200283528A1 (NUMAB THERAPEUTICS, published 2020).

The Kd is the constant that tells how readily two partners part at equilibrium. What is called koff is the rate constant with which the complex falls apart. By kon is commonly meant the rate constant with which the complex forms. The IC50 is the concentration that inhibits the measured activity by half.

Changes are numbered by the printed parent chain. Some results are limits rather than exact numbers.

Assay [1] has as its target T1, Fc tagged human PDL1 (human, UniProt Q9NZQ7 19-238).
T1 construct: also called PDL1-Fc chimeric protein (human); not shown: Fc tag
Briefly: SPR Biacore T200; Fc tagged PDL1 captured; scFv 0.12-30 nM. The protocol:
(§1) After each analyte injection cycle, the CM5 sensor chip was regenerated and new antigen was captured. The scFvs were injected as analyte using a dose response multicycle kinetic assay with concentrations of the analyte ranging from 0.12 to 30 nM diluted in running buffer for 5 min and dissociation of the protein was allowed to proceed for 12 min. Obtained sensorgrams were fitted using the 1:1 binding model.

The target of assay [2] is T2, human PDL1 (recombinant, soluble) (human, UniProt Q9NZQ7 19-238).
T2 construct: also called hPDL1; hPD-L1
Briefly: PDL1/B7-1 competition ELISA; B7-1 coated; scFv. The method, then: (§2) ELISA plates were coated by adding 50 μl of PBS containing 4 μg/ml B7-1 overnight at 4° C. Next day, plates were washed three times in overflow mode with 450 μl wash buffer (PBS, 0.005% Tween 20) per wells and 300 μl of blocking buffer (PBS, 1% BSA, 0.2% Tween 20) were added to each well for 1 h at RT on a nutating mixer. […] ELISA pates were washed 3 times in overflow mode with 450 μl wash buffer and two times 50 μl of each dilution was added in adjacent wells of the ELISA plates in order to generate duplicates. Plates were incubated 90 minutes at RT under gentle agitation. After three washes with 450 μl of washing buffer, 50 μl of streptavidin-polyHRP40 was added to each wells of the ELISA plate. After 1 h incubation at RT, plates were washed three times with 450 μl wash buffer and developed for 5 to 10 minutes after addition of 50 μl TMB. Finally, the enzymatic reaction was stopped by addition of 50 μl of 1 M HCl and plate was read at 450 nm using 690 nm as a reference wavelength.
For orientation: ELISA stands for enzyme-linked immunosorbent assay.

The target in assay [3] is cynomolgus PDL1, recombinant (Sino Biological) / PDL1-Fc chimeric protein (cynomolgus (Macaca fascicularis), UniProt G7PSE7 19-238). Briefly: SPR Biacore T200; cynomolgus PDL1 (Sino Biological) captured; scFv as analyte. The method, then: as §1
Sequence of cynomolgus PDL1, recombinant (Sino Biological) / PDL1-Fc chimeric protein (G7PSE7 entry or part of it mutant limits assumed): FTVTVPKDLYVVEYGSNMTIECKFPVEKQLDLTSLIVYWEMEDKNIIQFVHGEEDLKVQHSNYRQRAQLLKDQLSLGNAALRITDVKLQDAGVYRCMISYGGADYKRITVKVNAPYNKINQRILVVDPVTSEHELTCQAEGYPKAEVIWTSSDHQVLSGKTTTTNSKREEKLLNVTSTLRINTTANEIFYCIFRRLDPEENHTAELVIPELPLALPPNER
(In SPR one partner is held on a chip, and binding of the other changes the refractive index at the surface.)

Assay [4] addresses T2, human PDL1 (recombinant, soluble). Briefly: PDL1/PD-1 competition ELISA; PD-1 coated; scFv. The protocol:
as §2, with “4 μg/ml PD-1 overnight at” for “4 μg/ml B7-1 overnight at”, “μl of 10 ng/ml streptavidin-polyHRP40 were” for “μl of streptavidin-polyHRP40 was”, “ng/ml streptavidin-polyHRP40 were added to” for “of streptavidin-polyHRP40 was added to”, “the ELISA plates. After 1” for “the ELISA plate. After 1”

A further assay addresses T3, Fc tagged human PDL2 (human, UniProt Q9BQ51 20-219).
T3 construct: not shown: Fc tag
T3 sequence (looked up): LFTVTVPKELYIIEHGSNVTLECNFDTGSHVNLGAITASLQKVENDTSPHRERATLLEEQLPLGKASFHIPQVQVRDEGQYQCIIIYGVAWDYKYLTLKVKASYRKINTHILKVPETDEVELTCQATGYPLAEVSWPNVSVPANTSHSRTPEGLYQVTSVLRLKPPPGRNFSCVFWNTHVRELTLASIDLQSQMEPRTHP
In words: SPR Biacore T200; Fc tagged human PDL2 captured; scFv as analyte. The method, then: Humanized scFvs were tested for binding to PDL2 by SPR analysis on a T200 device (Biacore, GE Healthcare). In this experiment, Fc tagged human PDL2 was captured using the Human Antibody Capture kit from GE healthcare. After each analyte injection cycle the CM5 sensor chip was regenerated and new antigen was captured. The scFvs were injected as analyte at a concentration of 180 nM diluted in running buffer for 5 min and dissociation of the protein was allowed to proceed for 12 min.

Assay [5] deals with T4, human PDL1 expressed on cells (human, UniProt Q9NZQ7 19-290). Briefly: cell-based or functional assay.
The target of assay [6] is T2, human PDL1 (recombinant, soluble). In words: PDL1/PD-1 competition ELISA; PD-1 coated, biotinylated PDL1 1 ng/ml. The protocol: (§3) ELISA microplates coated overnight at 4° C. with 4 μg/ml human PD-1 were washed three times with 450 μl wash buffer per well. Plates were blocked for 1 hour at room temperature by adding 300 μl of PBS with 1% BSA and 0.2% tween (dilution buffer) to each well. […] The mixtures were pre-incubated for 1 hour at room temperature under gentle agitation on a rotating mixer (21 rpm) and added to the microplates after 3 wash cycles with 450 μl wash buffer per well. Plates were incubated for 1.5 hours at room temperature under gentle agitation, then 10 ng/ml streptavidin-polyHRP40 was added to each microplate well after three washes with 450 μl of wash buffer per well. After 1 h incubation at RT, plates were washed three times with 450 μl wash buffer and TMB substrate solution was added. The enzymatic reaction was stopped after 6 minutes by addition of 1 M HCl and absorbance was measured at 450 nm using 690 nm as a reference wavelength. For calculation of IC₅₀ values, a four-parameter logistic (4PL) curve fit was performed in Graph Pad Prism using reference subtracted values.

In assay [7] the target is T1, Fc tagged human PDL1. In words: SPR Biacore T200; PDL1-Fc captured; molecule 0.12-90 nM. The protocol: (§4) An antibody specific for the Fc region of human IgGs was immobilized on a sensor chip (CM5 sensor chip, GE Healthcare) by amine-coupling. […] After each injection cycle, surfaces were regenerated with one injection of a 3 M MgCl₂ solution. The apparent dissociation (kd) and association (kₐ) rate constants and the apparent dissociation equilibrium constant (KD) were calculated using one-to-one Langmuir binding model.

Assay [8] concerns the target T4, human PDL1 expressed on cells. Briefly: cell-based or functional assay. This is another data set of the same source.
Assay [9] has the same target. In words: cell-based or functional assay. The source holds these as a separate data set.
Assay [10] addresses T2, human PDL1 (recombinant, soluble). Briefly: PDL1/B7-1 competition ELISA; B7-1 coated, biotinylated PDL1 40 ng/ml. The method, then:
as §3, with “B7-1” for “PD-1”

The target of assay [11] is T4, human PDL1 expressed on cells. Briefly: cell-based or functional assay. The source holds these as a separate data set.
Assay [12] deals with T1, Fc tagged human PDL1. In words: SPR Biacore T200; PDL1-Fc captured. The method, then: as §4

B1: PRO1392 (33-03-G02-sc18 scFv) (scFv)
scFv: DIQMTQSPSSLSASVGDRVTITCQASQSINDYLAWYQQKPGKAPKLLIYKASTLASGVPSRFSGSGSGTDFTLTISSLQPEDFATYYCQQGYIITDIDNVFGTGTKVTVLGGGGGSGGGGSGGGGSGGGGSQVQLQESGPGLVKPSETLSLTCKASGFSFSSGYDMCWVRQPPGKGLEWIACVVAGSVDITYYASWAKGRVTISKDSSKNQVSLKLSSVTAADTAVYYCARKDAYSDAFNLWGQGTLVTVSS
In the assay with Fc tagged human PDL1 [1], B1 showed a Kd of 9.94 pM, a koff of 6.16e-05 s⁻¹ and a kon of 6.19e+06 M⁻¹ s⁻¹. In addition, in [2], the IC50 was found to be 1.19 ng/mL and the “Maximum Inhibition (%)” value came out at 93.2%. Moreover, in assay [3], the “KD, cyno/KD, human” value was 2; the Kd is 19.9 pM; the koff was 8.87e-05 s⁻¹; the kon was 4.45e+06 M⁻¹ s⁻¹. In addition, in assay [4], the IC50 was found to be 0.47 ng/mL and the “Maximum Inhibition (%)” value was determined as 99.9%. For the same molecule, the binding result in the assay with Fc tagged human PDL2 was “no binding (tested: 180 nM)”. In [5], the “reporter gene assay IC50” value was found to be 12 ng/mL and the “reporter gene assay Maximum Inhibition (%)” value came out at 96.7%.

B2: PRO997/PRO908 (37-20-B03-sc01 scFv) (scFv)
scFv: DIQMTQSPSSLSASVGDRVTITCQASQSIGTYLAWYQQKPGKAPKLLIYRAFILASGVPSRFSGSGSGTDFTLTISSLQPEDFATYYCQSNFYSDSTTIGPNAFGTGTKVTVLGGGGGSGGGGSGGGGSGGGGSQVQLQESGPGLVKPSETLSLTCKVSGFSFNSDYWIYWIRQPPGKGLEWIGSIYGGSSGNTQYASWAQGRVTISVDSSKNQFSLKLSSVTAADTAVYYCARGYVDYGGATDLWGQGTLVTVSS
notes: VL-linker-VH, VH4 CDR graft; PRO997 was made in CHO-S cells, PRO908 in bacteria; also called 37-20-B03 CDR
Regarding B2, in the assay with Fc tagged human PDL1 [1], binding was characterised by a dissociation constant (Kd) of 5.94 pM, the koff was found to be 4.02e-05 s⁻¹ and the kon came to 6.76e+06 M⁻¹ s⁻¹. Also, the concentration for half-maximal inhibition (IC50) in [6] was 0.5 ng/mL. In the assay with Fc tagged human PDL1 [7], the Kd was determined as 1.7 pM. Besides, in assay [2], the IC50 turned out to be 1.21 ng/mL and the “Maximum Inhibition (%)” value was found to be 93.1%. Moreover, the “NFAT reporter gene assay, fold potency of VH4 graft (PRO997) against VH1 graft (PRO1013)” value in assay [8] is ~2 fold. Further, in [3], the “KD, cyno/KD, human” value is < 0.28; the Kd is < 1.68 pM; the kon is 5.96e+06 M⁻¹ s⁻¹. For the same molecule, in assay [4], the IC50 came out at 0.33 ng/mL and the “Maximum Inhibition (%)” value came out at 100%. For the same molecule, the “NF-AT potency assay IC50” value in assay [9] is 11.1 ng/mL. Besides, the half-inhibitory concentration (IC50) in assay [10] stood at 6.36 ng/mL. Moreover, the “IL-2 secretion of SEA stimulated PBMC, EC50 in ng/ml” value in [11] was 40.9 ng/mL. The “fold higher affinity against the STR graft of clone 33-03-G02” value in the assay with Fc tagged human PDL1 [12] is ~2 fold. In addition, in [5], the “reporter gene assay IC50” value stood at 8.02 ng/mL and the “reporter gene assay Maximum Inhibition (%)” value is 95.3%.

B3: PRO1013 (37-20-B03-sc02 scFv) (scFv)
scFv: DIQMTQSPSSLSASVGDRVTITCQASQSIGTYLAWYQQKPGKAPKLLIYRAFILASGVPSRFSGSGSGTDFTLTISSLQPEDFATYYCQSNFYSDSTTIGPNAFGTGTKVTVLGGGGGSGGGGSGGGGSGGGGSQVQLVQSGAEVKKPGASVKVSCKASGFSFNSDYWIYWVRQAPGQGLEWMGSIYGGSSGNTQYASWAQGRVTMTRDTSISTAYMELSSLRSEDTAVYYCARGYVDYGGATDLWGQGTLVTVSS
notes: also called 37-20-B03 CDR, VH1
In the case of B3, the values for the IC50 in assay [6] and in assay [10] were 0.57 ng/mL and 4.05 ng/mL, respectively. Besides, in assay [9], the “NF-AT potency assay IC50” value came out at 21.3 ng/mL.

B4: PRO885 (38-02-A04 sc01 scDb-i/33-03-G02 sc01 scDb-o) (bispecific antibody)
chain: DIQMTQSPSSLSASVGDRVTITCQASQSINDYLAWYQQKPGKAPKLLIYKASTLASGVPSRFSGSGSGTDFTLTISSLQPEDFATYYCQQGYIITDIDNVFGTGTKVTVLGGGGGSQVQLQESGPGLVKPSETLSLTCKVSGFSFSNSYWICWIRQPPGKGLEWIGCTFVGSSDSTYYANWAKGRVTISVDSSKNQFSLKLSSVTAADTAVYYCARHPSDAVYGYANNLWGQGTLVTVSSGGGGSGGGGSGGGGSGGGGSIQMTQSPSSLSASVGDRVTITCQASQSINNVLAWYQQKPGKAPKLLIYRASTLASGVPSRFSGSGSGTDFTLTISSLQPEDFATYYCQSSYGNYGDFGTGTKVTVLGGGGGSQVQLQESGPGLVKPSETLSLTCKVSGFSFSSGYDMCWIRQPPGKGLEWIGCVVAGSVDITYYASWAKGRVTISVDSSKNQFSLKLSSVTAADTAVYYCARKDAYSDAFNLWGQGTLVTVSS
With B4, the IC50 in [6] is 8.35 ng/mL; in assay [10], 12.2 ng/mL. Further, the “NF-AT potency assay IC50” value in assay [9] amounted to 137 ng/mL. Besides, the “IL-2 secretion of SEA stimulated PBMC, EC50 in ng/ml” value in assay [11] amounted to 39.9 ng/mL.

B5: PRO1126 (38-02-A04 sc01 scDb-i/33_03_G02 sc03 Full scDb-o) (bispecific antibody)
chain: B4 chain with I2F, M4L, A43S, V374S, V396A, I410V, G422A, V446K, F453V, Y469F
For the molecule B5, in assay [6], the IC50 was found to be 1.28 ng/mL. This molecule showed a Kd with Fc tagged human PDL1 [7] of 3.5 pM. Further, in [8], the “NFAT reporter gene assay IC50” value came to 48.1 ng/mL and the “NFAT reporter gene assay, improvement of neutralization potency against PRO885” value was 3 fold. The “fold improvement in affinity against the CDR graft (PRO885)” value with Fc tagged human PDL1 [12] is 20 fold.
